Test results published in patent US20240327530A1 (ICHNOS SCIENCES, published 2024).

How the values were obtained:
[1] = target: T1, Human IL-1RAP, membrane-bound on human cells (HaCaT, dermal fibroblasts, neutrophils, PBMC, whole blood) (human, UniProt Q9NPH3 21-570); test: flow cytometry on normal human fibroblasts, nonlinear sigmoidal regression
T1 construct: Endogenous protein on cells
T1 sequence: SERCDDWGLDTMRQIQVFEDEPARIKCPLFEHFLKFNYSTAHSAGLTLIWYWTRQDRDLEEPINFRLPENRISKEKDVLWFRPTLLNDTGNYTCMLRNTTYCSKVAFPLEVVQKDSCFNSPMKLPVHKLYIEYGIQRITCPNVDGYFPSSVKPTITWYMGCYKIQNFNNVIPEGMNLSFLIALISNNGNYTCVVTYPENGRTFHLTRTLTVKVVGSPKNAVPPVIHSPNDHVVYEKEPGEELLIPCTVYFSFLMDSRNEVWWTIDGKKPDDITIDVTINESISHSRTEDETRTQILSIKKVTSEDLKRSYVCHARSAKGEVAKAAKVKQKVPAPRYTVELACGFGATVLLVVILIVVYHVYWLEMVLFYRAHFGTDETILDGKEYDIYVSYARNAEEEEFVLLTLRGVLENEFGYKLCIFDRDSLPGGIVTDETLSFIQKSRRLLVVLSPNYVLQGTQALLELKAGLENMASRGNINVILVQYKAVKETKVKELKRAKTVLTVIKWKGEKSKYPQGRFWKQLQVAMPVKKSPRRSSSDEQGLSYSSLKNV
Protocol: Bound antibodies were detected with a monoclonal anti-human IgG PE-Cyanine7 secondary antibody. The graphs show the nonlinear sigmoidal regression binding curves (Relative Geometric Mean Fluorescence Intensity) for each cell lines. Each data point is a measurement for a given cell line. Multiple independent experiments were performed across several donors (HaCaT and HaCaT IL-1RAP KO: 4 and 3 independent experiments; Human Dermal Fibroblasts: 2 independent experiments—total of 5 donors; Human Neutrophil: 2 experiments—total of 6 donors; Cyno Dermal Fibroblasts: 2 independent experiment—total of 4 donors).
In brief, cells were harvested, counted, and plated at 50,000 cells/well in a 96-well round-bottom plate. The plate was centrifuged at 350 g for 3 minutes and the cells were resuspended in 50 μl of FACS® buffer (PBS (1×)+2.5% FCS+2 mM EDTA+0.05% NaN₃) containing various concentrations (ranging from 50 to 0.00003 μg/ml) of either anti-human IL-1RAP_candidate_1 or Isotype control_5 antibodies. […] The cells were gated based on size on FSC vs SSC and analyzed for PE-Cyanine7-geometric mean (geomean) fluorescence intensity using FLOWJO® software. Finally, relative geomean fluorescence intensity was calculated by subtracting fluorescence of anti-human IL-1RAP_candidate_1 per fluorescence of Isotype control_5. […]

[2] = target: T2, Recombinant cynomolgus monkey IL-1RAP-ECD(S21-E359)-avi-his protein (cynomolgus monkey, UniProt P59822 21-359 (rhesus entry)); test: SPR, IgG1 LALA captured on anti-human IgG Fc CM5 chip, cynomolgus monkey IL-1RAP-avi-his as analyte in a concentration series, 1:1 fit, one representative replicate
T2 construct: also called cyno IL-1RAP-ECD-Avi-His; recombinant cynomolgus monkey IL-1RAP-avi-his protein
T2 sequence: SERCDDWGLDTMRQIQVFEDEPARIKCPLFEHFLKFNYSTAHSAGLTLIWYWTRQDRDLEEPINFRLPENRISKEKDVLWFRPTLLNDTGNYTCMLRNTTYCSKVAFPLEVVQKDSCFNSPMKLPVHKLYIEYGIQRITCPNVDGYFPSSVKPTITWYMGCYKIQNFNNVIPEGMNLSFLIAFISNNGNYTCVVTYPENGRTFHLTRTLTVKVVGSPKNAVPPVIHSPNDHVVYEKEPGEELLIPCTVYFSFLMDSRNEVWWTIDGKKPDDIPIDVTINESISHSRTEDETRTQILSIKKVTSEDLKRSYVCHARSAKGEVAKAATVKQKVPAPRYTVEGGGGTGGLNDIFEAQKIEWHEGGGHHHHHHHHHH
Protocol: Anti-IL-1RAP-C8-RecC-ES IgG1 LALA was immobilized on a Series S CM5 sensor CHIP coupled with anti-human IgG Fc. Human IL-1RAP-avi-his or cynomolgus monkey IL-1RAP-avi-his was injected over immobilized IgG1 LALA in concentration series in HBS-EP+ buffer. One representative replicate for human IL-1RAP and cynomolgus monkey IL-1RAP is presented. Plots are showing data expressed as number of resonance units (abbreviated RU; Y axis) vs. time (s, X axis). Dotted lines represent the measured data while solid lines represent simulated fits. KD: equilibrium dissociation constant; Ka: association constant; Kd: dissociation constant.
Surface plasmon resonance (SPR) was used to measure the binding affinities of the human IgG1 LALA molecules for human and cynomolgus monkey IL-1RAP. Affinities were measured on a BIACORE™ T200 instrument (BIACORE™, GE […]®) at 25° C. and analyzed with the BIACORE™ T200 Evaluation Software (v3.1). Measurements were performed on Series S CM5 sensor chips (BIACORE™ T200, BIACORE™, GE […]®, catalog no. BR100530) coupled with anti-human IgG Fc (BIACORE™, GE […]®, catalog no. BR100839) using a commercial amine coupling kit (BIACORE™, GE […]®, catalog no. BR100050). SPR measurements were performed with recombinant human IL-1RAP-avi-his protein produced in house (SEQ ID NO. 1) or recombinant cynomolgus monkey IL-1RAP-avi-his protein produced in house (SEQ ID NO. 2). The affinities to human and cynomolgus monkey IL-1RAP were assessed by immobilizing anti-IL-1RAP IgG1 LALA molecules and using IL-1RAP proteins as analyte. Around 150 RU of human IgG1 LALA were captured on fc2 of a Series S CM5 sensor chip coupled with anti-human IgG Fc. Recombinant human IL-1RAP-avi-his protein or recombinant cynomolgus monkey IL-1RAP-avi-his protein was injected in multi cycle kinetic at different concentrations ranging from 0.14 to 100 nM, in HBS-EP+ buffer (BIACORE™, GE […]®, catalog no. BR100669) at a flow rate of 30 μl/min for 3 min on fc1 and fc2 (fc1 being used as reference). Dissociation was monitored for 12 min.

- Kd [1]: 3.1 nM
- Kd [2]: 0.307 nM
- koff [2]: 0.000196 s⁻¹
- kon [2]: 638000 M⁻¹ s⁻¹
B1: Anti-IL-1RAP-C8-RecC-ES-IgG1LALA (antibody, V domains shown)
VH: QVQLVQSGAEVKKPGSSVKVSCKASGSPAEPYAIQWVRQAPGQGLEWMGYIIPSLGGYDYAQKFQGRVTITADESTSTAYMELSSLRSEDTAVYYCARGQTLYESGRQFDIWGQGTLVTVSS
VL: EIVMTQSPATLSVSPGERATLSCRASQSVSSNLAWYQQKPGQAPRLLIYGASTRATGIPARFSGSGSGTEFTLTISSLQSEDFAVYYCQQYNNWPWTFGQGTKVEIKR
notes: also called ISB 880-C8-recC-ES
